One assay deals with HLA-A*30:01. Briefly: IEDB peptide-MHC binding, purified MHC/competitive/radioactivity; filed as Kd, often an IC50 or EC50 that approximates it; ≥ and ≤ were set here for values at or beyond the usual limits of such assays. To be noted: source organism: Dengue virus 2 Jamaica/1409/1983.
The target in another assay is HLA-A*01:01. The assay is described as above.
The next assay has as its target HLA-B*08:01. The description is as above.
The next assay addresses HLA-A*30:02. The assay is described as above.
The next assay deals with HLA-B*44:02. The description is as above.
For another assay, the target named is HLA-B*44:03. Described as above.
Assay [1] has as its target HLA-A*02:01. Briefly: IEDB peptide-MHC binding, purified MHC/competitive/fluorescence; filed as Kd, often an IC50 or EC50 that approximates it; ≥ and ≤ were set here for values at or beyond the usual limits of such assays. The settings on record: source organism: Yersinia pestis Antiqua.
Assay [2] addresses HLA-A*26:01. Described as above. To be noted: source organism: Yersinia pestis Antiqua.
The target of the next assay is HLA-A*32:01. Briefly: IEDB peptide-MHC binding, purified MHC/competitive/radioactivity; filed as Kd, often an IC50 or EC50 that approximates it; ≥ and ≤ were set here for values at or beyond the usual limits of such assays.
For the next assay, the target named is HLA-A*24:02. Described as above.
The target of another assay is HLA-A*29:02. The assay is described as above.
Another assay addresses HLA-A*23:01. The description is as above.
Assay [3] has as its target HLA-A*31:01. Nature of the assay: IEDB peptide-MHC binding, purified MHC/direct/fluorescence; filed as Kd, often an IC50 or EC50 that approximates it; ≥ and ≤ were set here for values at or beyond the usual limits of such assays.
In assay [4] the target is HLA-A*03:01. The assay is described as above.
Assay [5] deals with HLA-A*11:01. Nature of the assay: IEDB peptide-MHC binding, purified MHC/competitive/radioactivity; filed as Kd, often an IC50 or EC50 that approximates it; ≥ and ≤ were set here for values at or beyond the usual limits of such assays.
The target of the next assay is HLA-A*68:01. The assay is described as above. The settings on record: source organism: Triticum aestivum.
Assay [6] concerns the target HLA-A*31:01. The assay is described as above. The settings on record: source organism: Triticum aestivum.
Assay [7] concerns the target HLA-A*26:01. The assay is described as above. The settings on record: source organism: Triticum aestivum.
The target of the next assay is HLA-A*33:01. The assay is described as above. To be noted: source organism: Triticum aestivum.
The target of assay [8] is HLA-A*03:01. The description is as above. To be noted: source organism: Triticum aestivum.
Assay [9] deals with HLA-A*02:01. Nature of the assay: IEDB peptide-MHC binding, purified MHC/direct/fluorescence; filed as Kd, often an IC50 or EC50 that approximates it; ≥ and ≤ were set here for values at or beyond the usual limits of such assays. To be noted: source organism: Homo sapiens.
For assay [10], the target named is HLA-A*11:01. The description is as above. The settings on record: source organism: Homo sapiens.
The mark [11] stands for this setting: source organism: Dengue virus 2 Jamaica/1409/1983.
Where [12] appears, read: source organism: Dengue virus 3 Martinique/1243/1999.
Setting [13] is: source organism: Dengue virus 1 Brazil/97-11/1997.
[14] abbreviates: source organism: Vaccinia virus Copenhagen.
Setting [15] is: source organism: Mammarenavirus brazilense.
[16] abbreviates: source organism: Francisella tularensis subsp. holarctica LVS.
[17] abbreviates: source organism: Vaccinia virus WR.
The mark [18] stands for this setting: source organism: Dengue virus 4 Philippines/H241/1956.
[19] abbreviates: source organism: Mammarenavirus guanaritoense.
[20] abbreviates: source organism: Triticum aestivum.

The record followed here is the Immune Epitope Database (IEDB).

As to ITEMGRLPTF, the results for the dissociation constant (Kd) with HLA-A*30:01 and with HLA-A*01:01 (setting [11]) were 9680 nM and 17500 nM, respectively.
On to KRRLRTLIL, for which the Kd with HLA-B*08:01 (setting [12]) worked out at 1000 nM.
KTKNNDWDY: the figures for the Kd with HLA-A*30:02 (setting [13]) and with HLA-A*01:01 (setting [13]) were 15 nM and 595 nM, respectively.
As to LEENMDVEIW, the Kd with HLA-B*44:02 (setting [13]) came to 269 nM; with HLA-B*44:03 (setting [13]), 126 nM.
As for LIIDEIGYL, the Kd in the assay with HLA-A*02:01 [1] stood at 4.6 nM; with HLA-A*26:01 [2], 4.4 nM.
As to LMYNLLTII, in the assay with HLA-A*32:01 (setting [14]), the Kd came to 30.2 nM.
Turning to LNYVIHKLF, the values for the equilibrium dissociation constant (Kd) in the assay with HLA-A*24:02 (setting [15]), with HLA-A*29:02 (setting [15]) and in the assay with HLA-A*23:01 (setting [15]) were 10500 nM, 12800 nM and 973 nM, respectively.
Turning to LRAQNALDNL, the Kd with HLA-B*08:01 (setting [13]) is 1360 nM.
Regarding LRKLTSRENL, the Kd with HLA-B*08:01 (setting [12]) amounted to 4950 nM.
With LTIGVNYDI, the Kd in the assay with HLA-A*32:01 (setting [14]) amounted to 525 nM.
As for LTSRENLLL, the equilibrium dissociation constant (Kd) with HLA-A*01:01 (setting [12]) came to 418 nM.
Turning to MAGPLVAGGL, the Kd with HLA-B*08:01 (setting [12]) was found to be 1070 nM.
Take MFMMIFHFV: the Kd with HLA-A*31:01 [3] (setting [16]) was 12000 nM; with HLA-A*03:01 [4] (setting [16]), at least 20000 nM.
For MIMYLVLGI, in the assay with HLA-A*32:01 (setting [17]), the dissociation constant (Kd) was 97.9 nM.
NARLKPLDI: in the assay with HLA-B*08:01 (setting [17]), the Kd worked out at 0.813 nM.
For NEELITEQM, the equilibrium dissociation constant (Kd) with HLA-B*44:02 (setting [18]) turned out to be 281 nM.
Consider NRRRRTAGM, for which the Kd with HLA-B*08:01 (source organism: Dengue virus 2 Peru/IQT2913/1996) is 98.9 nM.
Take NVHTWTEQY: the dissociation constant (Kd) with HLA-A*01:01 (setting [11]) amounted to 6040 nM.
Regarding PSVEVKLPDY, the dissociation constant Kd came out at 162 nM with HLA-A*30:02 (setting [18]) and 7510 nM with HLA-A*01:01 (setting [18]).
Consider REDLWCGSLI, for which the figures for the dissociation constant Kd with HLA-B*44:02 (setting [18]) and with HLA-B*44:03 (setting [18]) were 256 nM and 401 nM, respectively.
For the sequence RFFLPIFSEF, the results for the Kd in the assay with HLA-A*24:02 (setting [19]), with HLA-A*29:02 (setting [19]) and in the assay with HLA-A*23:01 (setting [19]) were 10.2 nM, 1.03 nM and 0.232 nM, respectively.
With RGEDGCWYGM, the Kd with HLA-A*32:01 (setting [11]) worked out at 11000 nM.
As to RKDIQQWEPS, the Kd with HLA-A*32:01 (setting [11]) is 3870 nM.
Take RLANNKVTI: the equilibrium dissociation constant (Kd) with HLA-A*32:01 (setting [17]) was 1.54 nM.
Regarding RLINNRVLF, in the assay with HLA-A*32:01 (setting [17]), the Kd is 5.67 nM.
Still for that read-out and setting: as for RSFEIINVL, the figure is 2.9 nM.
As for SALTLHWFRK, the values for the dissociation constant Kd in the assay with HLA-A*32:01 (setting [18]) and in the assay with HLA-A*11:01 [5] (setting [18]) were 1940 nM and 18.4 nM, respectively.
Consider SDMQKFTIL, for which the dissociation constant Kd with HLA-B*08:01 (setting [17]) came out at 40.9 nM.
In the case of SEMAEALKG, the Kd with HLA-B*44:02 (setting [13]) worked out at 14.5 nM.
For the sequence SQHQHLAIM, the Kd in the assay with HLA-B*08:01 (setting [17]) is 142 nM.
As to SSQVLQQSTY, the equilibrium dissociation constant (Kd) with HLA-A*24:02 (setting [20]) was at least 42300 nM; with HLA-A*30:02 (setting [20]), 588 nM; with HLA-A*29:02 (setting [20]), 2990 nM; in the assay with HLA-A*68:01, 9510 nM; with HLA-A*23:01 (setting [20]) it was at least 41500 nM; with HLA-A*31:01 [6], 9000 nM. In addition, the equilibrium dissociation constant (Kd) was found to be 4630 nM in the assay with HLA-A*26:01 [7], 2540 nM with HLA-A*11:01 [5] (setting [20]), 19000 nM with HLA-A*33:01 and 13500 nM with HLA-A*03:01 [8].
With SYLRKFSAL, the dissociation constant Kd in the assay with HLA-B*08:01 (setting [17]) is 5.98 nM.
With TNEVHTWTEQ, in the assay with HLA-A*32:01 (setting [13]), the Kd turned out to be 5360 nM.
In the case of TPMLRHTIE, the Kd in the assay with HLA-B*08:01 (setting [12]) worked out at 3.36 nM.
As to TSKKRSWPLN, the Kd was at least 38600 nM with HLA-A*32:01 (setting [11]) and 4530 nM with HLA-A*30:01.
Regarding TYQNKVVKVL, the Kd with HLA-B*08:01 (setting [18]) was determined as 155 nM.
Consider VEGVSGGAW, for which the Kd with HLA-B*44:02 (setting [18]) stood at 151 nM; with HLA-B*44:03 (setting [18]), 114 nM.
For VEGVSGGSW, the figures for the dissociation constant Kd with HLA-B*44:02 (setting [11]) and with HLA-B*44:03 (setting [11]) were 220 nM and 111 nM, respectively.
Turning to VIWILIVAI, in the assay with HLA-A*32:01 (setting [17]), the Kd was 198 nM.
On to VLLSKRPSL, for which, in the assay with HLA-B*08:01 (setting [17]), the Kd worked out at 78 nM.
Turning to VTDKEKPVNI, in the assay with HLA-A*01:01 (setting [13]), the Kd amounted to 15500 nM.
YLGSWATGK: the Kd in the assay with HLA-A*02:01 [9] amounted to 15800 nM; with HLA-A*31:01 [3] (source organism: Homo sapiens), 1960 nM; with HLA-A*11:01 [10], 1440 nM; with HLA-A*03:01 [4] (source organism: Homo sapiens), 257 nM.
